Values belong to the molecule of their own block, whether it stands above or below them.
Experiments:
[1] = target: SDM-Eno: enolase-1 with all seven corresponding charge-reversal mutations (bovine) (UniProt Q9XSJ4); test: anti-arrestin-1 (C10C10) immunoprecipitation pulldown of AlexaFluor546-labeled enolase-1; 5 µM each
bovine enolase-1 [2] = target: T1, bovine enolase-1 (bovine, UniProt Q9XSJ4 1-434, AlexaFluor-546 maleimide on reactive cysteines (pulldown assay only; unlabeled in the quench and activity assays)); test: as above
T1 construct: also called Eno1; alpha-enolase
T1 sequence (Q9XSJ4 whole entry): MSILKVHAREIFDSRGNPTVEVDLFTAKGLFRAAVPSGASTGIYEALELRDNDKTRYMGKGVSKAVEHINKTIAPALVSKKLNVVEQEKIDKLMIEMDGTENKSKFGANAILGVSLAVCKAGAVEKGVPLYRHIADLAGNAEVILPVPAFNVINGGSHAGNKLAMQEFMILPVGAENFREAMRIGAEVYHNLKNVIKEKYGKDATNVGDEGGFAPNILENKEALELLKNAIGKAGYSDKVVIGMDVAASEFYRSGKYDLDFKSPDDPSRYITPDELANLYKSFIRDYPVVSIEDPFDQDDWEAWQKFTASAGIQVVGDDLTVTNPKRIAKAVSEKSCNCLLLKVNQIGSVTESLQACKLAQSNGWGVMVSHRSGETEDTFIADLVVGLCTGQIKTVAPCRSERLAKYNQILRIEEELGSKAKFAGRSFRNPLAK
Description: E. Immunoprecipitation/Enolase Pulldown assay. The interaction between arrestin-1 and enolase-1 was assessed by using anti-arrestin-1 antibody to immunoprecipitate the arrestin-1-enolase-1 complex in which the enolase-1 was fluorescently labeled with AlexaFluor546. For this assay, 1.5 mg of Protein G-coated magnetic beads (DynaBeads, ThermoFisher), were coated with 10 μg of purified C10C10 anti-arrestin-1 monoclonal antibody (Donoso et al. (1990) S-antigen: preparation and characterization of site-specific monoclonal antibodies. Curr Eye Res 9, 343-355). Enolase-1 was labeled on its reactive cysteines with AlexaFluor-546 maleimide (ThermoFisher), reacting the enolase-1 with 100-fold molar excess of the fluorescent label. The fluorescently labeled enolase-1 was then sequentially dialyzed in LAP200^N buffer to remove any unreacted label. For the immunoprecipitation of the arrestin-1-enolase-1 complex, 5 μM arrestin-1 (or arrestin-1 variant) was mixed with 5 μM enolase-1-Alexa546 in LAP200^N in a 200 μL final volume for 2 h at 4° C., to which 10 μg of anti-arrestin-1 antibody on magnetic beads was subsequently added for 16 h with gentle rotation. The beads were magnetically captured, washed ten times with LAP200^N buffer, and then eluted with 0.1 M glycine (pH 2.5). After neutralizing the pH with 0.1 volume 1.5 M Tris base (pH 8.5), the fluorescence of the captured enolase-1-Alexa546 was measured, exciting fluorescence at 530 nm, and measuring average emission at 570-575 nm with a dual-detector fluorimeter (QM-1 steady state fluorescence spectrophotometer, Photon Technologies Inc).
The charge-pair interactions identified in example 1 were selected to further investigate the modeled arrestin-1/enolase-1 interaction. Seven charged-pair interactions (Table 3 and FIG. 4A) were identified from the model as having the closest interactions. […] Following heterologous expression and purification, each arrestin-1 mutant was then assessed for its interaction with enolase-1, using an anti-arrestin-1 immunoprecipitation assay to pulldown fluorescently labelled enolase-1.

bovine enolase-1 [3] = target: T1, bovine enolase-1; test: KI quench protection of mBBr-labeled arrestin-1; 0.25 µM arrestin-1, 5 µM (20-fold) enolase-1
bovine enolase-1 [4] = target: T1, bovine enolase-1; test: titration of enolase-1 (0-12.5 µM) on 0.25 µM H10C-mBBr, KI quench protection
Source text: FIGS. 1A-1B. Graph illustrating optimization of fluorescence quench and quench protection.
B. Enolase concentration. The concentration of enolase-1 that could provide protection of mBBr fluorescence from quenching by the KI was then titrated. […] 90% quench protection was selected as the criterion value, which corresponded to a 20-fold molar excess of enolase-1 to arrestin-1.

Sequence of SDM-Eno: enolase-1 with all seven corresponding charge-reversal mutations (bovine) (Q9XSJ4 whole entry, change not shown): as the sequence (Q9XSJ4 whole entry) above

B1: D362K arrestin-1 (bovine, His(6)-tagged charge-reversal mutant) (other)
chain: MHHHHHHKANKPAPNHVIFKKISRDKSVTIYLGKRDYIDHVERVEPVDGVVLVDPELVKGKRVYVSLTCAFRYGQEDIDVMGLSFRRDLYFSQVQVFPPVGASGATTRLQESLIKKLGANTYPFLLTFPDYLPCSVMLQPAPQDVGKSCGVDFEIKAFATHSTDVEEDKIPKKSSVRLLIRKVQHAPRDMGPQPRAEASWQFFMSDKPLRLAVSLSKEIYYHGEPIPVTVAVTNSTEKTVKKIKVLVEQVTNVVLYSSDYYIKTVAAEEAQEKVPPNSSLTKTLTLVPLLANNRERRGIALDGKIKHEDTNLASSTIIKEGIDKTVMGILVSYQIKVKLTVSGLLGELTSSEVATEVPFRLMHPQPEKPDTAKESFQDENFVFEEFARQNLKDAGEYKEEKTDQEAAMDE
reduction of enolase-1 pulldown relative to wild-type arrestin-1 (bovine enolase-1 [2]): ~25%

B2: E361K arrestin-1 (bovine, His(6)-tagged charge-reversal mutant) (other)
chain: MHHHHHHKANKPAPNHVIFKKISRDKSVTIYLGKRDYIDHVERVEPVDGVVLVDPELVKGKRVYVSLTCAFRYGQEDIDVMGLSFRRDLYFSQVQVFPPVGASGATTRLQESLIKKLGANTYPFLLTFPDYLPCSVMLQPAPQDVGKSCGVDFEIKAFATHSTDVEEDKIPKKSSVRLLIRKVQHAPRDMGPQPRAEASWQFFMSDKPLRLAVSLSKEIYYHGEPIPVTVAVTNSTEKTVKKIKVLVEQVTNVVLYSSDYYIKTVAAEEAQEKVPPNSSLTKTLTLVPLLANNRERRGIALDGKIKHEDTNLASSTIIKEGIDKTVMGILVSYQIKVKLTVSGLLGELTSSEVATEVPFRLMHPQPKDPDTAKESFQDENFVFEEFARQNLKDAGEYKEEKTDQEAAMDE
reduction of enolase-1 pulldown relative to wild-type arrestin-1 (bovine enolase-1 [2]): ~25%

B3: R29E arrestin-1 (bovine, His(6)-tagged charge-reversal mutant) (other)
chain: MHHHHHHKANKPAPNHVIFKKISRDKSVTIYLGKEDYIDHVERVEPVDGVVLVDPELVKGKRVYVSLTCAFRYGQEDIDVMGLSFRRDLYFSQVQVFPPVGASGATTRLQESLIKKLGANTYPFLLTFPDYLPCSVMLQPAPQDVGKSCGVDFEIKAFATHSTDVEEDKIPKKSSVRLLIRKVQHAPRDMGPQPRAEASWQFFMSDKPLRLAVSLSKEIYYHGEPIPVTVAVTNSTEKTVKKIKVLVEQVTNVVLYSSDYYIKTVAAEEAQEKVPPNSSLTKTLTLVPLLANNRERRGIALDGKIKHEDTNLASSTIIKEGIDKTVMGILVSYQIKVKLTVSGLLGELTSSEVATEVPFRLMHPQPEDPDTAKESFQDENFVFEEFARQNLKDAGEYKEEKTDQEAAMDE
reduction of enolase-1 pulldown relative to wild-type arrestin-1 (bovine enolase-1 [2]): ~25%

Other lines, results leading:

decrease of pulldown compared to pulldown of wild-type enolase-1 [1]: > 80%
Molecule: bovine wild-type arrestin-1, N-terminally His(6)-tagged (from UniProt P08168 2-404)

F(A+E+K) (fluorescence with enolase-1 and KI) (bovine enolase-1 [3]): 10300
Pf (quench protection factor) (bovine enolase-1 [3]): 0.792
quench protection at 20-fold molar excess of enolase-1 (bovine enolase-1 [4]): 90%
B4: H10C arrestin-1 (bovine, His(6), C63A/C143A) labeled with monobromobimane (other)
chain: MHHHHHHKANKPAPNCVIFKKISRDKSVTIYLGKRDYIDHVERVEPVDGVVLVDPELVKGKRVYVSLTAAFRYGQEDIDVMGLSFRRDLYFSQVQVFPPVGASGATTRLQESLIKKLGANTYPFLLTFPDYLPCSVMLQPAPQDVGKSAGVDFEIKAFATHSTDVEEDKIPKKSSVRLLIRKVQHAPRDMGPQPRAEASWQFFMSDKPLRLAVSLSKEIYYHGEPIPVTVAVTNSTEKTVKKIKVLVEQVTNVVLYSSDYYIKTVAAEEAQEKVPPNSSLTKTLTLVPLLANNRERRGIALDGKIKHEDTNLASSTIIKEGIDKTVMGILVSYQIKVKLTVSGLLGELTSSEVATEVPFRLMHPQPEDPDTAKESFQDENFVFEEFARQNLKDAGEYKEEKTDQEAAMDE
modifications: monobromobimane (mBBr) on Cys 10
notes: Cysteine-substitution mutant, made in Pichia pastoris; also called H10C-mBBr

Source: US20230174598A1 (UNIVERSITY OF FLORIDA RESEARCH FOUNDATION, published 2023)
